What is called Kd is the free concentration of one partner at which half of the binding sites on the other are occupied at equilibrium, for simple one-to-one binding.

Consider nine substances from patent US11464867B2, “Multimeric elastin-like polypeptides” (University of Southern California, priority 2018, dated 2022).

Where only a bound is given, the exact number is not on record here.

Data set [1] in a line: CsA encapsulation by two-phase solvent evaporation, RP-HPLC. The data set is classed as physicochemical. The settings on record: for CsA loading ratio: FIG. 16. On the procedure:
The mixture was incubated at 37° C. and samples were collected at different time points up to 48 h.
This was followed by high-speed centrifugation and filtration to remove the excess insoluble drug. […] The mobile phase flow rate was set to 1.0 ml/min. The linear gradient from 20% to 95% of methanol was applied from 0 to 5 min. Then the mobile phase was changed to 95% methanol isocratic flow for 10 min.
This was followed by high-speed centrifugation and filtration to remove the excess insoluble drug. The loading ratio was then determined by reversed-phase high-performance liquid chromatography (RP-HPLC) analysis method.
The drug loading capability of 2nd and 3rd generation carriers were also tested using the same encapsulation method detailed above employing the method of Shi, et al., 2013.

Data set [2] is described as follows: Phase transition temperature by optical density (UV-Vis, 350 nm) versus temperature. The class given is physicochemical. Particulars: for Transition temperature at 25 μM: Table 5. How it is done:
The temperature with the maximum positive slope was defined as the phase transition temperature for each condition. (FIG. 2B) The concentration-temperature phase diagram was determined for both ELPs, and fit to the following equation: Tt=b−m Log10[CELP].
Both ELPs at different concentrations (5 μM to 100 μM) were subject to a precisely controlled temperature increase from 25 to 75° C. at a rate of 1° C./min. The Tt of ELPs is defined as the temperature at which the first derivative of the optical density with respect to the temperature reaches a maximum.

The nature of data set [3]: Isothermal titration calorimetry of 5FA/Rapa interaction. The data set is classed as binding. Particulars: ITC. From the text:
Using Isothermal Titration calorimetry (ITC), the binding stoichiometry of 5FA/Rapa interaction was estimated to be 5. […] An overall negative Gibbs free energy (−10 kJ/mol interactions) indicates FKBP/Rapa binding is thermodynamically favorable.
For orientation: In ITC the heat of successive injections is recorded.

A short description of data set [4]: Multivariate fit of the phase diagram of ELP monoblock copolymers. The class given is physicochemical. Particulars: for Tc: critical transition temperature; for n: dependence on inverse of ELP length; for m: dependence on natural logarithm of concentration; for K: interaction term between length and concentration. From the text: The Tt of the ELP component can be modified by varying ELP chain length, as the Tt generally increases with decreasing MW. For polypeptides having a molecular weight >100,000, the hydrophobicity scale developed by Urry et al. (PCT/US96/05186, which is hereby incorporated by reference in its entirety) is preferred for predicting the approximate Tt of a specific ELP sequence. However, in some embodiments, ELP component length can be kept relatively small, while maintaining a target Tt, by incorporating a larger fraction of hydrophobic guest residues (e.g., amino acid residues having hydrophobic side chains) in the ELP sequence. For polypeptides having a molecular weight <100,000, the Tt may be predicted or determined by the following function:
[formula] where Tc is a critical transition temperature, m is the dependence on the natural logarithm of concentration, n is the dependence on the inverse of the ELP length l, and k is an interaction term between length and concentration.

“3(CA)C: 3rd generation carrier CypA-A24-CypA-A24-CypA-A24-CypA, SEQ ID NO: 9”: the CsA loading ratio in data set [1] was found to be 209.0%.
Turning to “5FA: 5 FKBP domains linked by ELP A24, SEQ ID NO: 10”, the “Transition temperature at 25 μM” value in data set [2] was 53.2 °C. In addition, in data set [3], the Gibbs free energy is −10 kJ/mol interactions, the TAS is recorded as −48 kJ/mol interactions and the binding enthalpy is listed as −58 kJ/mol interactions. In data set [3] (true KD likely lower, beyond limit of detection, read-out: equilibrium dissociation constant (KD)), the Kd was ≤ 1.5 nM.
On to “5FV: 5 FKBP domains linked by ELP V24, SEQ ID NO: 11”, for which the “Transition temperature at 25 μM” value in data set [2] is 27.7 °C.
Regarding “(Val-Pro-Gly-Ala-Gly): ELP monoblock library, SEQ ID NO: 61 (VPGAG)”, in data set [4], the Tc was 40.5 ± 1.6 °C, the n is 7009 ± 345 °C pentamers, the m is recorded as 0 ° C./ln(μM) and the K was −850.1 ± 51.5 °C pentamers/ln(μM).
Taken in the same sequence, the figures for “(Val-Pro-Gly-Ile-Gly): ELP monoblock library, SEQ ID NO: 63 (VPGIG)” were 13.0 ± 0.6 °C, 760 ± 30 °C pentamers, 0 ° C./ln(μM) and −81.2 ± 7.9 °C pentamers/ln(μM).
Turning to “(Val-Pro-Gly-Ser-Gly): ELP monoblock library, SEQ ID NO: 60 (VPGSG)”, in data set [4], the Tc was 63.6 ± 1.1 °C, the m is given as −1.86 ± 0.31 ° C./ln(μM) and the K is 0 °C pentamers/ln(μM).
For “(Val-Pro-Gly-Val-Gly): ELP monoblock library, SEQ ID NO: 62 (VPGVG)”, in data set [4], the Tc came to 21.2 ± 0.9 °C, the n came out at 1607 ± 90 °C pentamers, the m is on record as 0 ° C./ln(μM) and the K was −163.1 ± 23.3 °C pentamers/ln(μM).
As to “CA96C: 2nd generation carrier CypA-A96-CypA, SEQ ID NO: 8”, the CsA loading ratio in data set [1] was found to be 127.5%.
Turning to “CV96: cyclophilin A fused to ELP V96, SEQ ID NO: 4”, the “Transition temperature (Tt)” value in data set [2] (at 25 μM, 1° C./min) is 31.2 °C. Moreover, in data set [2] (fit Tt = b - m Log10[CELP], Table 3), the “Slope, m” value was 4.4 ° C./Log10(μm). Moreover, the “Intercept, b” value in data set [2] (intercept at 1 μM, Table 3) was 36.8 °C. In addition, the “CsA loading compared with a comparator” value in data set [1] (in words) is reported as “higher loading ratio”.
